Test results as given in patent US20140271457A1 (AbbVie / Abbott, published 2014).

What was measured:
Recombinant Human IL-13 [1] = target: Recombinant Human IL-13 (human, UniProt P35225 35-146, limits assumed); experiment: cell-based or functional assay
Target sequence in this assay (P35225 35-146 limits assumed): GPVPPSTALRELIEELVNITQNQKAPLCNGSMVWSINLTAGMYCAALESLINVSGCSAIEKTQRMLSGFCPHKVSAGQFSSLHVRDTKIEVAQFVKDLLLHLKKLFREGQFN

[2] = target: T1, Recombinant Human TNF-α/TNFSF1A (human, UniProt P01375 77-233); experiment: SPR (Biacore)
T1 construct: also called huTNFα
T1 sequence (P01375 77-233 limits assumed): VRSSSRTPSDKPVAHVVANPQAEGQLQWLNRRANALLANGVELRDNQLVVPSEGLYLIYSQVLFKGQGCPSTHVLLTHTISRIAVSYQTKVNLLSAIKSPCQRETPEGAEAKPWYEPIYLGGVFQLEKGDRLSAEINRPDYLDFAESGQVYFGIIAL

[3] = target: T2, Recombinant Human TNF-α/TNFSF1A (human, UniProt P01375 77-233); experiment: cell-based or functional assay
T2 sequence (P01375 77-233 limits assumed): as above

[4] = target: T2, Recombinant Human TNF-α/TNFSF1A; experiment: Biacore SPR
Outline: (§1)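 Kinetic constants come from global 1:1 model fitting (Rmax local) at 0.8–100 nM antigen. Flow was 50 μl/min with 5 min association and 10 min dissociation. Capture used goat anti-mouse IgG Fcγ on a CM5 chip in HBS-EP+ at 25 °C.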

Recombinant Human IL-13 [5] = target: Recombinant Human IL-13 (human, UniProt P35225 35-146, limits assumed); experiment: Biacore SPR
Outline: as §1
Target sequence in this assay (P35225 35-146 limits assumed): as the sequence (P35225 35-146 limits assumed) above

IL-13 Neutralization Assay IC50 (Recombinant Human IL-13 [1]) [nM] | binding result [2] | C-Terminal VD huTNFα Neutralization Assay IC50 [3] [nM] | Kd [4] [nM] | koff [4] [s⁻¹] | kon [4] [M⁻¹ s⁻¹] | Kd (Recombinant Human IL-13 [5]) [nM] | koff (Recombinant Human IL-13 [5]) [s⁻¹] | kon (Recombinant Human IL-13 [5]) [M⁻¹ s⁻¹] | N-Terminal VD huTNFα Neutralization Assay IC50 [3] [nM] | Binder
0.081 | binds |  |  |  |  |  |  |  |  | DVD3168 (bispecific antibody, human IgG1, kappa, DVD-Ig: outer AB399 (IL-13), inner AB441 (TNF); linkers GS-H10/GS-L10; also called DVD3168H; DVD3168L) heavy: not shown light: DIQMTQSPSSLSASVGDRVTITCRASQGIRNYLNWYQQKPGKAPKLLIYYASNLEVGVPSRFSGSGSGTDYTLTISSLQPEDFATYYCQQDNRFPYTFGGGTKVEIKRGGSGGGGSGDIQMTQSPSSLSASVGDRVTITCRASQDISQYLNWYQQKPGKAPKLLIYYTSRLQSGVPSRFSGSGSGTDFTLTISSLQPEDFATYFCQQGNTWPPTFGQGTKLEIKRTVAAPSVFIFPPSDEQLKSGTASVVCLLNNFYPREAKVQWKVDNALQSGNSQESVTEQDSKDSTYSLSSTLTLSKADYEKHKVYACEVTHQGLSSPVTKSFNRGEC
 |  | 0.169 | < 0.0015 | < 1e-06 | 650000 | 0.01 | 2e-05 | 1.9e+06 |  | DVD3169 (bispecific antibody, IgG1, DVD-Ig; wt hIgG1 + kappa constants) VH: EVQLVQSGAEVKKPGASVKVSCKASGYTFTSYWMHWVRQAPGQGLEWIGNINPKGGSNIYNEKFQGRVTMTRDTSISTAYMELSRLRSDDTAVYYCARLDYFGDSFDLWGQGTTVTVSSASTKGPEVQLVQSGAEVKKPGASVKVSCKASGYTFANYGIIWVRQAPGQGLEWMGWINTYTGKPTYAQKFQGRVTMTTDTSTSTAYMELSSLRSEDTAVYYCARKLFTTMDVTDNAMDYWGQGTTVTVSS VL: DIQMTQSPSSLSASVGDRVTITCRASQGIRNYLNWYQQKPGKAPKLLIYYASNLEVGVPSRFSGSGSGTDYTLTISSLQPEDFATYYCQQDNRFPYTFGGGTKVEIKRTVAAPDIQMTQSPSSLSASVGDRVTITCRASQDISQYLNWYQQKPGKAPKLLIYYTSRLQSGVPSRFSGSGSGTDFTLTISSLQPEDFATYFCQQGNTWPPTFGQGTKLEIKR
 |  | 0.146 | 0.045 | 3.6e-05 | 800000 | 0.064 | 7.4e-05 | 1.1e+06 |  | DVD3168 (bispecific antibody, IgG1, DVD-Ig; wt hIgG1 + kappa constants) VH: EVQLVQSGAEVKKPGASVKVSCKASGYTFTSYWMHWVRQAPGQGLEWIGNINPKGGSNIYNEKFQGRVTMTRDTSISTAYMELSRLRSDDTAVYYCARLDYFGDSFDLWGQGTTVTVSSGGGGSGGGGSEVQLVQSGAEVKKPGASVKVSCKASGYTFANYGIIWVRQAPGQGLEWMGWINTYTGKPTYAQKFQGRVTMTTDTSTSTAYMELSSLRSEDTAVYYCARKLFTTMDVTDNAMDYWGQGTTVTVSS VL: DIQMTQSPSSLSASVGDRVTITCRASQGIRNYLNWYQQKPGKAPKLLIYYASNLEVGVPSRFSGSGSGTDYTLTISSLQPEDFATYYCQQDNRFPYTFGGGTKVEIKRGGSGGGGSGDIQMTQSPSSLSASVGDRVTITCRASQDISQYLNWYQQKPGKAPKLLIYYTSRLQSGVPSRFSGSGSGTDFTLTISSLQPEDFATYFCQQGNTWPPTFGQGTKLEIKR
 |  |  | 0.016 | 6.5e-05 | 4e+06 | 0.87 | 4.8e-05 | 55000 | 0.021 | DVD3164 (bispecific antibody, IgG1, DVD-Ig; wt hIgG1 + kappa constants) VH: EVQLVQSGAEVKKPGASVKVSCKASGYTFANYGIIWVRQAPGQGLEWMGWINTYTGKPTYAQKFQGRVTMTTDTSTSTAYMELSSLRSEDTAVYYCARKLFTTMDVTDNAMDYWGQGTTVTVSSASTKGPEVQLVQSGAEVKKPGASVKVSCKASGYTFTSYWMHWVRQAPGQGLEWIGNINPKGGSNIYNEKFQGRVTMTRDTSISTAYMELSRLRSDDTAVYYCARLDYFGDSFDLWGQGTTVTVSS VL: DIQMTQSPSSLSASVGDRVTITCRASQDISQYLNWYQQKPGKAPKLLIYYTSRLQSGVPSRFSGSGSGTDFTLTISSLQPEDFATYFCQQGNTWPPTFGQGTKLEIKRTVAAPDIQMTQSPSSLSASVGDRVTITCRASQGIRNYLNWYQQKPGKAPKLLIYYASNLEVGVPSRFSGSGSGTDYTLTISSLQPEDFATYYCQQDNRFPYTFGGGTKVEIKR
 |  |  | 0.027 | 0.00013 | 4.7e+06 | 0.18 | 5.1e-05 | 280000 | 0.016 | DVD3166 (bispecific antibody, IgG1, DVD-Ig; wt hIgG1 + kappa constants) VH: EVQLVQSGAEVKKPGASVKVSCKASGYTFANYGIIWVRQAPGQGLEWMGWINTYTGKPTYAQKFQGRVTMTTDTSTSTAYMELSSLRSEDTAVYYCARKLFTTMDVTDNAMDYWGQGTTVTVSSASTKGPEVQLVQSGAEVKKPGASVKVSCKASGYTFTSYWMHWVRQAPGQGLEWIGNINPKGGSNIYNEKFQGRVTMTRDTSISTAYMELSRLRSDDTAVYYCARLDYFGDSFDLWGQGTTVTVSS VL: DIQMTQSPSSLSASVGDRVTITCRASQDISQYLNWYQQKPGKAPKLLIYYTSRLQSGVPSRFSGSGSGTDFTLTISSLQPEDFATYFCQQGNTWPPTFGQGTKLEIKRTVAAPSVFIFPPDIQMTQSPSSLSASVGDRVTITCRASQGIRNYLNWYQQKPGKAPKLLIYYASNLEVGVPSRFSGSGSGTDYTLTISSLQPEDFATYYCQQDNRFPYTFGGGTKVEIKR
0.089 | binds |  |  |  |  |  |  |  |  | DVD3169 (bispecific antibody, human IgG1, kappa, DVD-Ig: outer AB399 (IL-13), inner AB441 (TNF); linkers HG-short/LK-short; also called DVD3169H; DVD3169L) heavy: not shown light: DIQMTQSPSSLSASVGDRVTITCRASQGIRNYLNWYQQKPGKAPKLLIYYASNLEVGVPSRFSGSGSGTDYTLTISSLQPEDFATYYCQQDNRFPYTFGGGTKVEIKRTVAAPDIQMTQSPSSLSASVGDRVTITCRASQDISQYLNWYQQKPGKAPKLLIYYTSRLQSGVPSRFSGSGSGTDFTLTISSLQPEDFATYFCQQGNTWPPTFGQGTKLEIKRTVAAPSVFIFPPSDEQLKSGTASVVCLLNNFYPREAKVQWKVDNALQSGNSQESVTEQDSKDSTYSLSSTLTLSKADYEKHKVYACEVTHQGLSSPVTKSFNRGEC
